Among the data in US20180264103A1 (ELITEIMMUNE, published 2018) are EC50 values, retold here.

The target of test [1] is RSV-F (Strain RSS-2) (respiratory syncytial virus (Strain RSS-2)) (UniProt P11209). Nature of the test: ELISA, antigen coated on plate, same conditions as R66. Background: ELISA stands for enzyme-linked immunosorbent assay.
The target in test [2] is RSV-F (Strain A2) (respiratory syncytial virus (Strain A2)) (UniProt P03420). The description is as above.
The target of another test is T1, RSV-F (Strain RSS-2) (respiratory syncytial virus (Strain …, UniProt P11209 26-529)).
T1 construct: Bought protein (Sino Biological Inc.), coated on the ELISA plate; also called glycoprotein F; antigen F of RSV
Nature of the test: ELISA, antigen coated on plate, anti-human IgG-HRP detection.

A further test has as its target T2, RSV-F (Strain A2) (respiratory syncytial virus (Strain A2), UniProt P03420 26-529).
T2 construct: Bought protein (Sino Biological Inc.), coated on the ELISA plate; also called glycoprotein F; antigen F of RSV
The test is described as above.

Chain of RSV-F (Strain A2) (respiratory syncytial virus (Strain A2)) (P03420 26-529): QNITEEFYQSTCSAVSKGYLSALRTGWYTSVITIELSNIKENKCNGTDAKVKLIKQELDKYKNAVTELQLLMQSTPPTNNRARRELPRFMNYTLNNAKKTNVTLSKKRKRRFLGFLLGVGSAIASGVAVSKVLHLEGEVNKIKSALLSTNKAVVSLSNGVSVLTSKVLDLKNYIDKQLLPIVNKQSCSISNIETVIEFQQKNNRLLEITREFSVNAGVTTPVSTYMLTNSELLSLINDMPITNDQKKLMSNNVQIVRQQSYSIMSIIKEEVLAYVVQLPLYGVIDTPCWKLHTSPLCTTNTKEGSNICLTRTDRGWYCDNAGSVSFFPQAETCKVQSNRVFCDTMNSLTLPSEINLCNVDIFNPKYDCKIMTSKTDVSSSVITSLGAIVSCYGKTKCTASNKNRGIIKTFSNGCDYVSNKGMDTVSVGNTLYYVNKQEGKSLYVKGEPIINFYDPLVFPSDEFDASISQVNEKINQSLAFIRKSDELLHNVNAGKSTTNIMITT
T2 sequence (P03420 26-529): as above
Chain of RSV-F (Strain RSS-2) (respiratory syncytial virus (Strain RSS-2)) (P11209 26-529): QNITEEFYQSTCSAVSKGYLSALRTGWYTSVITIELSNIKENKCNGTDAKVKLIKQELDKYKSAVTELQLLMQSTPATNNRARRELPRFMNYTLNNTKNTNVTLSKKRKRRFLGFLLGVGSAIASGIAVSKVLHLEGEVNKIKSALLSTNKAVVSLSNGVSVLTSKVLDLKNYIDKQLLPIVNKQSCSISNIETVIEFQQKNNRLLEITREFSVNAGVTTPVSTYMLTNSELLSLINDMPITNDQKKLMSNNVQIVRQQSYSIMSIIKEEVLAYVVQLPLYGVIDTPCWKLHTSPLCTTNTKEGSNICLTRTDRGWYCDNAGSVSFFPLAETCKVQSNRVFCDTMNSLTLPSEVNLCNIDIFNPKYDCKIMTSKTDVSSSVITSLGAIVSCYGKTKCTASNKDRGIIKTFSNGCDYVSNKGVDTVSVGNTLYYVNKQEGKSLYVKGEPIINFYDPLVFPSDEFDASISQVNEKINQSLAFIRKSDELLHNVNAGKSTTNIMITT
T1 sequence (P11209 26-529): as above

As to Palivizumab Synagis (antibody), the half-maximal effective concentration (EC50) (commonly the concentration that produces a half-maximal response) was 1.88 ng/mL in test [1] and 4.88 ng/mL in test [2].

B1: fully human anti-RSV monoclonal antibody R66 (antibody, V domains shown)
VH: EVQLVESGGGLVQPGRSLRLSCTASGFTFADYSMTWVRQAPGKGLEWVGLIKRNAYGGTTEYAASVRGRFTISRDDSRSIAYLQMHSLKSEDTAVYFCLRGYSGYDWEGLDAFEVWGQGTMVTVSS
VL: DIQMTQSPSAMSASVGDRVTITCRASQGSSTYLAWFQQKPGKVPKRLIYAVSSLQSGVPSRFSGSGSGTEFTLTISSLQPEDSATYYCLQHNSFPLTFGQGTKVEIK
notes: expressed in 293T cells, Protein A purified; heavy chain about 50 kDa, light chain about 22 kDa; also called R66 antibody
As to B1, the EC50 was 1.46 ng/mL with RSV-F (Strain RSS-2) and 1.79 ng/mL with RSV-F (Strain A2).
